The target of the test is Notch receptor (Drosophila) (UniProt P07207). The test is described as follows: competitive cell aggregation assay.
Sequence of UniProt P07207 (P07207 53-2703): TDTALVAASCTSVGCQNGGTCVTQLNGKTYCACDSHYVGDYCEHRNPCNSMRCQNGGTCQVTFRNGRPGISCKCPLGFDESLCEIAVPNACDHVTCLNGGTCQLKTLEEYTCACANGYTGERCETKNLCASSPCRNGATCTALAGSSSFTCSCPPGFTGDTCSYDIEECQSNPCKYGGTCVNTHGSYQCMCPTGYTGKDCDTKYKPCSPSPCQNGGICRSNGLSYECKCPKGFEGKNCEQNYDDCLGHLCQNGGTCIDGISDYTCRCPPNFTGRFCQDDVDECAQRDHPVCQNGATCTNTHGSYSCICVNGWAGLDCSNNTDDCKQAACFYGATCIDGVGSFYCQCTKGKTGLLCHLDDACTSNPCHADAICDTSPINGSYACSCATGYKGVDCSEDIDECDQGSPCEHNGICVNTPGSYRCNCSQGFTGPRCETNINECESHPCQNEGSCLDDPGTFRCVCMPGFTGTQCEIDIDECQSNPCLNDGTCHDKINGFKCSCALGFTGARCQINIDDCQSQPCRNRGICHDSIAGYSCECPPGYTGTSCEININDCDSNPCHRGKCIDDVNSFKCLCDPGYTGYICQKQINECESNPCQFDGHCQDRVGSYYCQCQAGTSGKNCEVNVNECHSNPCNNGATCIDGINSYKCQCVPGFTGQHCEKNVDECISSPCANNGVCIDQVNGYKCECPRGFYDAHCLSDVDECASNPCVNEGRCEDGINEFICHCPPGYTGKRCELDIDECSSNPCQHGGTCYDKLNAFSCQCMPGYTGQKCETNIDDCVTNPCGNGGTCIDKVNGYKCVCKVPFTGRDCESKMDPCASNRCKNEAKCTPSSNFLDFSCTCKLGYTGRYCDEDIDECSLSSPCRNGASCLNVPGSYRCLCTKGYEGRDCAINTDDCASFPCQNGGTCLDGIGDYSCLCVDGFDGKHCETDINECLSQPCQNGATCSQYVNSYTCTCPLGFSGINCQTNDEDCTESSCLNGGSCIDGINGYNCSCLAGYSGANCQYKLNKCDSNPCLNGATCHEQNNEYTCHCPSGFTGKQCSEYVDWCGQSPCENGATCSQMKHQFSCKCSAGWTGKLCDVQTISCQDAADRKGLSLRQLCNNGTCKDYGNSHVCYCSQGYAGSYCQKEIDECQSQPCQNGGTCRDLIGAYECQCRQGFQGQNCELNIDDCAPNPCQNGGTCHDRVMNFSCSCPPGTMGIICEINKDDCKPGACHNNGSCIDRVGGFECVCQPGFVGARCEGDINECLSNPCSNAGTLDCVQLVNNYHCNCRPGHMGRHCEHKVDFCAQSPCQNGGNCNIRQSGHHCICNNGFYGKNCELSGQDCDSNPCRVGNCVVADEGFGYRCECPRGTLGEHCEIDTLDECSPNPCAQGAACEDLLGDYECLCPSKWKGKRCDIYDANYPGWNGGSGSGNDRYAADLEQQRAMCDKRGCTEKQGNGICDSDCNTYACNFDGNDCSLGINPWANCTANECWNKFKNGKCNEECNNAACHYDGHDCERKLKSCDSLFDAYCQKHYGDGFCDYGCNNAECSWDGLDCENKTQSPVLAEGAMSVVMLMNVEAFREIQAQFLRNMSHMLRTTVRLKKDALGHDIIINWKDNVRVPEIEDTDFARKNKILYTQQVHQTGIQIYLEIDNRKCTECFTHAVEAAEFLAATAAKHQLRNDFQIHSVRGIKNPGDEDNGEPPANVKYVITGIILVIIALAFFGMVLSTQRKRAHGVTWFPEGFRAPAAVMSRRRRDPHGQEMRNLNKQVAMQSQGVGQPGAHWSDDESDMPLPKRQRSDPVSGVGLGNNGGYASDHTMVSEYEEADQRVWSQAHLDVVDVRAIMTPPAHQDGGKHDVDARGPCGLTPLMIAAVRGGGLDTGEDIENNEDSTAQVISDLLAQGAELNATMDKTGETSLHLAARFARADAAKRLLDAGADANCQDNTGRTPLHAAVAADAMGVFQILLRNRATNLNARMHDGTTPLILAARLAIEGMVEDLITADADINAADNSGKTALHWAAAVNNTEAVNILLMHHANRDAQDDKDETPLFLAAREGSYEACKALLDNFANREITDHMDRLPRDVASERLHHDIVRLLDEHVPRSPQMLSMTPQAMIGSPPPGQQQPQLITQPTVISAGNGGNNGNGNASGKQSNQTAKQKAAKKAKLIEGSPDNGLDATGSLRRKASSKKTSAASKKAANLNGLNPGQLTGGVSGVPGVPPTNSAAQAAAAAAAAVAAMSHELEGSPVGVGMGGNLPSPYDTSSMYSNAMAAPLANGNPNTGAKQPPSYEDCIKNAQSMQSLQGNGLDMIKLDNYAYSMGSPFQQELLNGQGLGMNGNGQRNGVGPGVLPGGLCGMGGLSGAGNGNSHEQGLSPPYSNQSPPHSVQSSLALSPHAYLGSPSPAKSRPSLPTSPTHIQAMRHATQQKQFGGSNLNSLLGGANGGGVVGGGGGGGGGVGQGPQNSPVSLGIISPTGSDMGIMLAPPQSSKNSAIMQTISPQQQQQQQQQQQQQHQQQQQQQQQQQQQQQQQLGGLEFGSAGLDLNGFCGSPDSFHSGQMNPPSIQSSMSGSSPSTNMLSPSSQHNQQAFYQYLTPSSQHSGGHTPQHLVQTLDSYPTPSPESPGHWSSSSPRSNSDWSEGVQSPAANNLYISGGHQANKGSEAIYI

Take “DlEC, extracellular fragment of Delta released by cleavage (from UniProt P10041 19-581) (domain or fragment)”: the percent inhibition of aggregation at >0.5 μM DlEC is less than 20%.
